Measured values from US6645728.

How the values were obtained:
[1] = biological target: T1, kinase-deficient IKKα (K44M), Q60680
T1 chain: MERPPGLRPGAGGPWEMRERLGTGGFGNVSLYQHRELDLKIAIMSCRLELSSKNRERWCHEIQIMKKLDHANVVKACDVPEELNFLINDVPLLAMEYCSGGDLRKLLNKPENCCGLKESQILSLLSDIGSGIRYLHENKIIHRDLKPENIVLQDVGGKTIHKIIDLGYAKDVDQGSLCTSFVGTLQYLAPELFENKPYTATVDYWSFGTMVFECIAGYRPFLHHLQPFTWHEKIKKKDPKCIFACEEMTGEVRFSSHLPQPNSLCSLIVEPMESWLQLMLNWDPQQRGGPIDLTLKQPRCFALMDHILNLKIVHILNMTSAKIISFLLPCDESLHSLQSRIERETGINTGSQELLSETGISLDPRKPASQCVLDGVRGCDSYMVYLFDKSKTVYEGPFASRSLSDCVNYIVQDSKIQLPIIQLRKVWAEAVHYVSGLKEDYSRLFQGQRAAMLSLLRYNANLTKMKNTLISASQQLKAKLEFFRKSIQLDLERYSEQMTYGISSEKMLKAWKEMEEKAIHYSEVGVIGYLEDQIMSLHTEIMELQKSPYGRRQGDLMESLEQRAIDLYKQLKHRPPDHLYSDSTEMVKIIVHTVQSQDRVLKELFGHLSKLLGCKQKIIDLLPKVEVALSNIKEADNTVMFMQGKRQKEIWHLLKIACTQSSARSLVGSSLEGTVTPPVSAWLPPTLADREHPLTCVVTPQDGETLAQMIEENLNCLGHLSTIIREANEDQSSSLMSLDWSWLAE

[2] = biological target: T2, IKKα (as present in transfected 293 cells)
T2 sequence (O15111 1-745, species assumed, looked up): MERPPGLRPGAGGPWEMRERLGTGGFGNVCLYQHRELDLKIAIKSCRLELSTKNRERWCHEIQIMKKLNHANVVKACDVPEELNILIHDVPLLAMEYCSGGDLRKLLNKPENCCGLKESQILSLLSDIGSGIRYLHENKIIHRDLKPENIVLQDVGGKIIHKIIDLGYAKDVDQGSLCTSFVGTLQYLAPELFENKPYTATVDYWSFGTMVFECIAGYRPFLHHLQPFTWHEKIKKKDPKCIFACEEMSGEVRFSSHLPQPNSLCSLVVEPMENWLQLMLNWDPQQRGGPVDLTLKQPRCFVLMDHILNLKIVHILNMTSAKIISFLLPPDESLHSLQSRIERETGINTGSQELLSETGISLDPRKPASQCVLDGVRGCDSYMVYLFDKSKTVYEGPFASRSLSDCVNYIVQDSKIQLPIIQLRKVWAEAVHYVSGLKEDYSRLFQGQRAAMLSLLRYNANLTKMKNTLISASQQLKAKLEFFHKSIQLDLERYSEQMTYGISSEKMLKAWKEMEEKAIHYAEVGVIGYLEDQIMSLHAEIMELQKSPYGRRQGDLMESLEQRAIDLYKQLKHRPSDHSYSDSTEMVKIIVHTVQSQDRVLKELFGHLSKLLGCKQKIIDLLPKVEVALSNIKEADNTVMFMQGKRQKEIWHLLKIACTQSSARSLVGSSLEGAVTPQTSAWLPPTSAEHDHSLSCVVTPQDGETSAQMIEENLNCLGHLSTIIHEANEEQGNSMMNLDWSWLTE

| Protein | phosphorylation of coimmunoprecipitated IKKα (K44M) in immunocomplex kinase reaction [1] | IKKα activity (in vitro kinase reaction on GST-IκBα (1-62)) [2] |
| --- | --- | --- |
| Myc-NIK (protein) MAVMEMACPGAPGSAVGQQKELPKPKEKTPPLGKKQSSVYKLEAVEKSPVFCGKWEILNDVITKGTAKEGSEAGPAAISIIAQAECENSQEFSPTFSERIFIAGSKQYSQSESLDQIPNNVAHATEGKMARVCWKGKRRSKARKKRKKKSSKSLAHAGVALAKPLPRTPEQESCTIPVQEDESPLGAPYVRNTPQFTKPLKEPGLGQLCFKQLGEGLRPALPRSELHKLISPLQCLNHVWKLHHPQDGGPLPLPTHPFPYSRLPHPFPFHPLQPWKPHPLESFLGKLACVDSQKPLPDPHLSKLACVDSPKPLPGPHLEPSCLSRGAHEKFSVEEYLVHALQGSVSSSQAHSLTSLAKTWAARGSRSREPSPKTEDNEGVLLTEKLKPVDYEYREEVHWATHQLRLGRGSFGEVHRMEDKQTGFQCAVKKVRLEVFRAEELMACAGLTSPRIVPLYGAVREGPWVNIFMELLEGGSLGQLVKEQGCLPEDRALYYLGQALEGLEYLHSRRILHGDVKADNVLLSSDGSHAALCDFGHAVCLQPDGLGKSLLTGDYIPGTETHMAPEVVLGRSCDAKVDVWSSCCMMLHMLNGCHPWTQFFRGPLCLKIASEPPPVREIPPSCAPLTAQAIQEGLRKEPIHRVSAAELGGKVNRALQQVGGLKSPWRGEYKEPRHPPPNQANYHQTLHAQPRELSPRAPGPRPAEETTGRAPKLQPPLPPEPPEPNKSPPLTLSKEESGMWEPLPLSSLEPAPARNPSSPERKATVPEQELQQLEIELFLNSLSQPFSLEEQEQILSCLSIDSLSLSDDSEKNPSKASQSSRDTLSSGVHSWSSQAEARSSSWNMVLARGRPTDTPSYFNGVKVQIQSLNGEHLHIREFHRVKVGDIATGISSQIPAAAFSLVTKDGQPVRYDMEVPDSGIDLQCTLAPDGSFAWSWRVKHGQLENRP | wild-type NIK and mutant NIK-S549A and NIK-T552A effectively phosphorylated the coimmunoprecipitated IKKα (K44M) protein in vitro | – |
| NIK-T552A (protein) MAVMEMACPGAPGSAVGQQKELPKPKEKTPPLGKKQSSVYKLEAVEKSPVFCGKWEILNDVITKGTAKEGSEAGPAAISIIAQAECENSQEFSPTFSERIFIAGSKQYSQSESLDQIPNNVAHATEGKMARVCWKGKRRSKARKKRKKKSSKSLAHAGVALAKPLPRTPEQESCTIPVQEDESPLGAPYVRNTPQFTKPLKEPGLGQLCFKQLGEGLRPALPRSELHKLISPLQCLNHVWKLHHPQDGGPLPLPTHPFPYSRLPHPFPFHPLQPWKPHPLESFLGKLACVDSQKPLPDPHLSKLACVDSPKPLPGPHLEPSCLSRGAHEKFSVEEYLVHALQGSVSSSQAHSLTSLAKTWAARGSRSREPSPKTEDNEGVLLTEKLKPVDYEYREEVHWATHQLRLGRGSFGEVHRMEDKQTGFQCAVKKVRLEVFRAEELMACAGLTSPRIVPLYGAVREGPWVNIFMELLEGGSLGQLVKEQGCLPEDRALYYLGQALEGLEYLHSRRILHGDVKADNVLLSSDGSHAALCDFGHAVCLQPDGLGKSLLAGDYIPGTETHMAPEVVLGRSCDAKVDVWSSCCMMLHMLNGCHPWTQFFRGPLCLKIASEPPPVREIPPSCAPLTAQAIQEGLRKEPIHRVSAAELGGKVNRALQQVGGLKSPWRGEYKEPRHPPPNQANYHQTLHAQPRELSPRAPGPRPAEETTGRAPKLQPPLPPEPPEPNKSPPLTLSKEESGMWEPLPLSSLEPAPARNPSSPERKATVPEQELQQLEIELFLNSLSQPFSLEEQEQILSCLSIDSLSLSDDSEKNPSKASQSSRDTLSSGVHSWSSQAEARSSSWNMVLARGRPTDTPSYFNGVKVQIQSLNGEHLHIREFHRVKVGDIATGISSQIPAAAFSLVTKDGQPVRYDMEVPDSGIDLQCTLAPDGSFAWSWRVKHGQLENRP | wild-type NIK and mutant NIK-S549A and NIK-T552A effectively phosphorylated the coimmunoprecipitated IKKα (K44M) protein in vitro | – |
| NIK-S549A (protein) MAVMEMACPGAPGSAVGQQKELPKPKEKTPPLGKKQSSVYKLEAVEKSPVFCGKWEILNDVITKGTAKEGSEAGPAAISIIAQAECENSQEFSPTFSERIFIAGSKQYSQSESLDQIPNNVAHATEGKMARVCWKGKRRSKARKKRKKKSSKSLAHAGVALAKPLPRTPEQESCTIPVQEDESPLGAPYVRNTPQFTKPLKEPGLGQLCFKQLGEGLRPALPRSELHKLISPLQCLNHVWKLHHPQDGGPLPLPTHPFPYSRLPHPFPFHPLQPWKPHPLESFLGKLACVDSQKPLPDPHLSKLACVDSPKPLPGPHLEPSCLSRGAHEKFSVEEYLVHALQGSVSSSQAHSLTSLAKTWAARGSRSREPSPKTEDNEGVLLTEKLKPVDYEYREEVHWATHQLRLGRGSFGEVHRMEDKQTGFQCAVKKVRLEVFRAEELMACAGLTSPRIVPLYGAVREGPWVNIFMELLEGGSLGQLVKEQGCLPEDRALYYLGQALEGLEYLHSRRILHGDVKADNVLLSSDGSHAALCDFGHAVCLQPDGLGKALLTGDYIPGTETHMAPEVVLGRSCDAKVDVWSSCCMMLHMLNGCHPWTQFFRGPLCLKIASEPPPVREIPPSCAPLTAQAIQEGLRKEPIHRVSAAELGGKVNRALQQVGGLKSPWRGEYKEPRHPPPNQANYHQTLHAQPRELSPRAPGPRPAEETTGRAPKLQPPLPPEPPEPNKSPPLTLSKEESGMWEPLPLSSLEPAPARNPSSPERKATVPEQELQQLEIELFLNSLSQPFSLEEQEQILSCLSIDSLSLSDDSEKNPSKASQSSRDTLSSGVHSWSSQAEARSSSWNMVLARGRPTDTPSYFNGVKVQIQSLNGEHLHIREFHRVKVGDIATGISSQIPAAAFSLVTKDGQPVRYDMEVPDSGIDLQCTLAPDGSFAWSWRVKHGQLENRP | wild-type NIK and mutant NIK-S549A and NIK-T552A effectively phosphorylated the coimmunoprecipitated IKKα (K44M) protein in vitro | – |
| NIK-T559A (protein) MAVMEMACPGAPGSAVGQQKELPKPKEKTPPLGKKQSSVYKLEAVEKSPVFCGKWEILNDVITKGTAKEGSEAGPAAISIIAQAECENSQEFSPTFSERIFIAGSKQYSQSESLDQIPNNVAHATEGKMARVCWKGKRRSKARKKRKKKSSKSLAHAGVALAKPLPRTPEQESCTIPVQEDESPLGAPYVRNTPQFTKPLKEPGLGQLCFKQLGEGLRPALPRSELHKLISPLQCLNHVWKLHHPQDGGPLPLPTHPFPYSRLPHPFPFHPLQPWKPHPLESFLGKLACVDSQKPLPDPHLSKLACVDSPKPLPGPHLEPSCLSRGAHEKFSVEEYLVHALQGSVSSSQAHSLTSLAKTWAARGSRSREPSPKTEDNEGVLLTEKLKPVDYEYREEVHWATHQLRLGRGSFGEVHRMEDKQTGFQCAVKKVRLEVFRAEELMACAGLTSPRIVPLYGAVREGPWVNIFMELLEGGSLGQLVKEQGCLPEDRALYYLGQALEGLEYLHSRRILHGDVKADNVLLSSDGSHAALCDFGHAVCLQPDGLGKSLLTGDYIPGAETHMAPEVVLGRSCDAKVDVWSSCCMMLHMLNGCHPWTQFFRGPLCLKIASEPPPVREIPPSCAPLTAQAIQEGLRKEPIHRVSAAELGGKVNRALQQVGGLKSPWRGEYKEPRHPPPNQANYHQTLHAQPRELSPRAPGPRPAEETTGRAPKLQPPLPPEPPEPNKSPPLTLSKEESGMWEPLPLSSLEPAPARNPSSPERKATVPEQELQQLEIELFLNSLSQPFSLEEQEQILSCLSIDSLSLSDDSEKNPSKASQSSRDTLSSGVHSWSSQAEARSSSWNMVLARGRPTDTPSYFNGVKVQIQSLNGEHLHIREFHRVKVGDIATGISSQIPAAAFSLVTKDGQPVRYDMEVPDSGIDLQCTLAPDGSFAWSWRVKHGQLENRP | failed to phosphorylate the coprecipitating IKKα | the mutant NIK-T559A failed to induce IKKα activity |
